Reference: PMC13499124, “Insights into how JIP3 and JIP4 adaptor proteins relieve the auto-inhibited form of the kinesin-1 motor” (The Journal of Biological Chemistry, 2026)
Values joined by “and” are separate entries in the source; they are usually repeats but may differ in a detail not shown here. Identical values can stand only once.

Key:
[1] = biological target: the molecule itself; assay: SEC-MALS; JIP3/4-Nter fragments in solution, single peak; dimer; conditions not shown (Fig. S1B, Table S2)
[2] = biological target: T1, KIF5B-CC3b-CC4-dt fragment (human, UniProt P33176 771-963); assay: MST; labelled JIP3/4 fragment (Blue-NHS dye) constant at 20 nM, KIF5B fragment titrated 120 pM to 4 uM (up to 38.2 uM when needed); 50 mM Tris pH 8.0, 200 mM NaCl, 10 mM MgCl2, 0.05% Tween 20; room temperature; Monolith NT.115, premium capillaries, MST-on 0.5-1.5 s; 1:1 Kd fit; three replicates; the paper calls its affinities relative measurements; conditions: both partners purified
T1 construct: kinesin-1 heavy chain KIF5B, human, NP_004512.1, residues 771-963 (last part of CC3, CC4 and distal tail); pET28 plasmid, NdeI/XhoI; the methods call it CC3-CC4-dt; also called KIF5B-CC3-CC4-dt; KIF5B-Tail; source: E. coli Rosetta, purified (His-Trap, Superdex 75 gel filtration); not shown: His6, N-terminal, kept
T1 sequence (P33176 771-963): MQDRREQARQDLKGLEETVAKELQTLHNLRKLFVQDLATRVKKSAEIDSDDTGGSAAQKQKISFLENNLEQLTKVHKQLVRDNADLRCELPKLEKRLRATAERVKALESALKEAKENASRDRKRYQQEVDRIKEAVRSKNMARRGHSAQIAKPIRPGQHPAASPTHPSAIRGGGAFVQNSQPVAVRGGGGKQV

[3] = biological target: T1, KIF5B-CC3b-CC4-dt fragment; assay: as above; conditions: both partners purified; remark: listed apart in the source
[4] = biological target: T2, KIF5B-CC3b-CC4 fragment, 6-histidine tag removed (human, UniProt P33176 771-914); assay: MST + other fluorescence titration; JIP3-N-RH1-lz3 wild type and alanine mutants labelled with NHS-fluorescein, constant at 20 nM; KIF5B-CC3b-CC4 without His tag titrated; 50 mM Tris pH 8.0, 200 mM NaCl, 10 mM MgCl2, 0.05% Tween 20; room temperature; Monolith NT.115; the change in overall fluorescence intensity was used for the Kd; 1:1 fit; conditions: both partners purified
T2 construct: kinesin-1 heavy chain KIF5B, human, NP_004512.1, residues 771-914 (last part of CC3 and CC4); source: E. coli Rosetta, purified (His-Trap, Superdex 75 gel filtration); not shown: His6, N-terminal, cleaved
T2 sequence (P33176 771-914): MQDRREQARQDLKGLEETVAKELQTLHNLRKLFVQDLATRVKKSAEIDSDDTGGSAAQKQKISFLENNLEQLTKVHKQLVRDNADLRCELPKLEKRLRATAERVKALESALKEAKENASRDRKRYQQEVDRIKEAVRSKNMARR

[5] = biological target: T3, KIF5B-CC3b-CC4 fragment, with N-terminal 6-histidine tag (human, UniProt P33176 771-914); assay: MST; labelled JIP3/4 fragment (Blue-NHS dye) constant at 20 nM, KIF5B fragment titrated 120 pM to 4 uM (up to 38.2 uM when needed); 50 mM Tris pH 8.0, 200 mM NaCl, 10 mM MgCl2, 0.05% Tween 20; room temperature; Monolith NT.115, premium capillaries, MST-on 0.5-1.5 s; 1:1 Kd fit; three replicates; the paper calls its affinities relative measurements; conditions: both partners purified
T3 construct: kinesin-1 heavy chain KIF5B, human, NP_004512.1, residues 771-914 (last part of CC3 and CC4); also called CC3-CC4; source: E. coli Rosetta, purified (His-Trap, Superdex 75 gel filtration); not shown: His6, N-terminal, kept
T3 sequence (P33176 771-914): as above

Binder	stoichiometry N [1]	Kd [2]	Kd [3]	Kd [4]	Kd [5]
JIP3-RH1-lz3 fragment (domain or fragment, mouse, UniProt Q9ESN9-1 22-100, looked up, labelled with the dye NHS-NT-488 (Protein Labelling Kit Blue-NHS, NanoTemper) in the MST assay, JIP3, mouse, NP_038959.2, residues 22-100 (RH1 domain and first three heptad repeats of LZI); Unlabelled in SEC-MALS; source: E. coli Rosetta, purified (His-Trap, gel filtration, thrombin cleavage, gel filtration); not shown: His tag, N-terminal, cleaved; thioredoxin, N-terminal, cleaved) GSVMSERVSGLAGSIYREFERLIHCYDEEVVKELMPLVVNVLENLDSVLSENQEHEVELELLREDNEQLLTQYEREKAL	2	79.3 ± 15.9 nM	–	–	–
JIP4-N-RH1-lz3 fragment (domain or fragment, UniProt O60271 1-95, looked up, labelled with a fluorescent dye in the MST assay (legend of Figure 4), JIP4, N-terminus (17 residues), RH1 domain and first three heptad repeats of LZI; also called wild-type JIP4-N-RH1-lz3) MELEDGVVYQEEPGGSGAVMSERVSGLAGSIYREFERLIGRYDEEVVKELMPLVVAVLENLDSVFAQDQEHQVELELLRDDNEQLITQYEREKAL	2	–	777 ± 146 nM	–	–
JIP4-RH1-lz3 fragment (domain or fragment, UniProt O60271 18-95, looked up, labelled with a fluorescent dye in the MST assay (legend of Figure 4), JIP4, RH1 domain and first three heptad repeats of LZI, without the 17-residue N-terminus) AVMSERVSGLAGSIYREFERLIGRYDEEVVKELMPLVVAVLENLDSVFAQDQEHQVELELLRDDNEQLITQYEREKAL	2	–	682 ± 187 nM	–	–
JIP3-RH1-LZI fragment (domain or fragment, UniProt Q9ESN9 22-187, looked up, labelled with the dye NHS-NT-488 (Protein Labelling Kit Blue-NHS, NanoTemper) in the MST assay, JIP3, RH1 domain followed by the entire LZI coiled-coil, without the N-terminus; also called RH1-LZ1) GSVMSERVSGLAGSIYREFERLIHCYDEEVVKELMPLVVNVLENLDSVLSENQEHEVELELLREDNEQLLTQYEREKALRKQAEEKFIEFEDALEQEKKELQIQVEHYEFQTRQLELKAKNYADQISRLEERESEMKKEYNALHQRHTEMIQTYVEHIERSKMQQV	–	50.5 ± 12.9 nM	–	–	–
JIP3-N-RH1-lz3 E39A (domain or fragment, mouse, UniProt Q9ESN9-1 1-100, looked up, labelled with NHS-fluorescein (Thermo Fisher Scientific), JIP3, mouse, NP_038959.2, residues 1-100 (N-RH1-lz3); also called JIP3-E39A; source: E. coli Rosetta, purified (His-Trap, gel filtration, thrombin cleavage, gel filtration); not shown: His tag, N-terminal, cleaved; thioredoxin, N-terminal, cleaved) MMEIQMDEGGGVVVYQDDYCSGSVMSERVSGLAGSIYRAFERLIHCYDEEVVKELMPLVVNVLENLDSVLSENQEHEVELELLREDNEQLLTQYEREKAL	–	–	–	395 ± 137 nM	–
JIP3-N-RH1-lz3 E77Q (domain or fragment, mouse, UniProt Q9ESN9-1 1-100, looked up, labelled with a fluorescent dye in the MST assay (legend of Figure 4), JIP3, mouse, NP_038959.2, residues 1-100 (N-RH1-lz3), residue changed to that of JIP4; also called JIP3-E77Q; source: E. coli Rosetta, purified (His-Trap, gel filtration, thrombin cleavage, gel filtration); not shown: His tag, N-terminal, cleaved; thioredoxin, N-terminal, cleaved) MMEIQMDEGGGVVVYQDDYCSGSVMSERVSGLAGSIYREFERLIHCYDEEVVKELMPLVVNVLENLDSVLSENQEHQVELELLREDNEQLLTQYEREKAL	–	–	46.8 ± 6.8 nM	–	–
JIP3-N-RH1-lz3 E54A (domain or fragment, mouse, UniProt Q9ESN9-1 1-100, looked up, labelled with NHS-fluorescein (Thermo Fisher Scientific), JIP3, mouse, NP_038959.2, residues 1-100 (N-RH1-lz3); also called JIP3-E54A; source: E. coli Rosetta, purified (His-Trap, gel filtration, thrombin cleavage, gel filtration); not shown: His tag, N-terminal, cleaved; thioredoxin, N-terminal, cleaved) MMEIQMDEGGGVVVYQDDYCSGSVMSERVSGLAGSIYREFERLIHCYDEEVVKALMPLVVNVLENLDSVLSENQEHEVELELLREDNEQLLTQYEREKAL	–	–	–	226 ± 26.4 nM	–
JIP3-N-RH1-lz3 fragment (domain or fragment, mouse, UniProt Q9ESN9-1 1-100, looked up, labelled with the dye NHS-NT-488 (Blue-NHS, NanoTemper) in Tables 1 and 3; labelled with NHS-fluorescein (Thermo Fisher Scientific) in Table 2, JIP3, mouse, NP_038959.2, residues 1-100 (N-terminus, RH1 domain and first three heptad repeats of LZI); Unlabelled in SEC-MALS; also called JIP3-WT; wild-type JIP3-N-RH1-lz3; source: E. coli Rosetta, purified (His-Trap, gel filtration, thrombin cleavage, gel filtration); not shown: His tag, N-terminal, cleaved; thioredoxin, N-terminal, cleaved) MMEIQMDEGGGVVVYQDDYCSGSVMSERVSGLAGSIYREFERLIHCYDEEVVKELMPLVVNVLENLDSVLSENQEHEVELELLREDNEQLLTQYEREKAL	2	14.7 nM and 18.3 nM	20.6 ± 2.6 nM	148 ± 21.4 nM	77.7 ± 12 nM
